Measurements reported in patent publication US20110311550A1.

Key:
Assay in all cases: ELISA, lectin-captured E1E2 lysate, Ab 1 ug/ml
[1] = biological target: E1E2 complex (H77) with E1 mutation S307A (HCV genotype 1a, isolate H77) (UniProt P27958)
[2] = biological target: E1E2 complex (H77) with E1 mutation G282A (HCV genotype 1a, isolate H77) (UniProt P27958)
[3] = biological target: E1E2 complex (H77) with E1 mutation N209A (HCV genotype 1a, isolate H77) (UniProt P27958)
[4] = biological target: E1E2 complex (H77) with E2 mutation A439G (HCV genotype 1a, isolate H77) (UniProt P27958)
[5] = biological target: E1E2 complex (H77) with E1 mutation Q289A (HCV genotype 1a, isolate H77) (UniProt P27958)
[6] = biological target: E1E2 complex (H77) with E2 mutation T435A (HCV genotype 1a, isolate H77) (UniProt P27958)
[7] = biological target: E1E2 complex (H77) with E1 mutation T292A (HCV genotype 1a, isolate H77) (UniProt P27958)
[8] = biological target: E1E2 complex (H77) with E1 mutation Q193A (HCV genotype 1a, isolate H77) (UniProt P27958)
[9] = biological target: E1E2 complex (H77) with E1 mutation G315A (HCV genotype 1a, isolate H77) (UniProt P27958)
[10] = biological target: E1E2 complex (H77) with E2 mutation Y618A (HCV genotype 1a, isolate H77) (UniProt P27958)
[11] = biological target: E1E2 complex (H77) with E2 mutation G634A (HCV genotype 1a, isolate H77) (UniProt P27958)
[12] = biological target: E1E2 complex (H77) with E2 mutation E637A (HCV genotype 1a, isolate H77) (UniProt P27958)
[13] = biological target: E1E2 complex (H77) with E1 mutation P328A (HCV genotype 1a, isolate H77) (UniProt P27958)
[14] = biological target: E1E2 complex (H77) with E1 mutation Y309A (HCV genotype 1a, isolate H77) (UniProt P27958)
[15] = biological target: E1E2 complex (H77) with E1 mutation S236A (HCV genotype 1a, isolate H77) (UniProt P27958)
[16] = biological target: E1E2 complex (H77) with E1 mutation L258A (HCV genotype 1a, isolate H77) (UniProt P27958)
[17] = biological target: E1E2 complex (H77) with E1 mutation D206A (HCV genotype 1a, isolate H77) (UniProt P27958)
[18] = biological target: E1E2 complex (H77) with E1 mutation R339A (HCV genotype 1a, isolate H77) (UniProt P27958)
[19] = biological target: E1E2 complex (H77) with E1 mutation D321A (HCV genotype 1a, isolate H77) (UniProt P27958)
[20] = biological target: E1E2 complex (H77) with E1 mutation R317A (HCV genotype 1a, isolate H77) (UniProt P27958)
[21] = biological target: E1E2 complex (H77) with E1 mutation R296A (HCV genotype 1a, isolate H77) (UniProt P27958)
[22] = biological target: E1E2 complex (H77) with E1 mutation F291A (HCV genotype 1a, isolate H77) (UniProt P27958)
[23] = biological target: E1E2 complex (H77) with E2 mutation Y624A (HCV genotype 1a, isolate H77) (UniProt P27958)
[24] = biological target: E1E2 complex (H77) with E1 mutation A269G (HCV genotype 1a, isolate H77) (UniProt P27958)
[25] = biological target: E1E2 complex (H77) with E1 mutation P228A (HCV genotype 1a, isolate H77) (UniProt P27958)
[26] = biological target: E1E2 complex (H77) with E1 mutation H222A (HCV genotype 1a, isolate H77) (UniProt P27958)
[27] = biological target: E1E2 complex (H77) with E2 mutation A642G (HCV genotype 1a, isolate H77) (UniProt P27958)
[28] = biological target: E1E2 complex (H77) with E1 mutation N196A/N305A (HCV genotype 1a, isolate H77) (UniProt P27958)
[29] = biological target: E1E2 complex (H77) with E1 mutation A274G (HCV genotype 1a, isolate H77) (UniProt P27958)

mouse anti-E1 MAb A4 (antibody)
Binding relative to wt (%) [1]: 157%
Binding relative to wt (%) [2]: 50%
Binding relative to wt (%) [3]: 119%
Binding relative to wt (%) [4]: 119%
Binding relative to wt (%) [5]: 49%
Binding relative to wt (%) [6]: 117%
Binding relative to wt (%) [7]: 90%
Binding relative to wt (%) [8]: 81%
Binding relative to wt (%) [9]: 91%
Binding relative to wt (%) [10]: 157%
Binding relative to wt (%) [11]: 112%
Binding relative to wt (%) [12]: 122%
Binding relative to wt (%) [13]: 123%
Binding relative to wt (%) [14]: 78%
Binding relative to wt (%) [15]: 88%
Binding relative to wt (%) [16]: 99%
Binding relative to wt (%) [17]: 81%
Binding relative to wt (%) [18]: 87%
Binding relative to wt (%) [19]: 91%
Binding relative to wt (%) [20]: 95%
Binding relative to wt (%) [21]: 108%
Binding relative to wt (%) [22]: 67%
Binding relative to wt (%) [23]: 121%
Binding relative to wt (%) [24]: 47%
Binding relative to wt (%) [25]: 171%
Binding relative to wt (%) [26]: 132%
Binding relative to wt (%) [27]: 137%
Binding relative to wt (%) [28]: 69%
Binding relative to wt (%) [29]: 53%
